Laboratory results taken from publication PMC8687477 (2021).

Columns and labels:
[1] = molecular target: T1, SARS-CoV-2 nucleocapsid protein (N), 2X-StrepTag tagged (SARS-CoV-2, UniProt P0DTC9 1-419); experiment: BLI
[2] = molecular target: T1, SARS-CoV-2 nucleocapsid protein (N), …; experiment: BLI; remark: listed apart in the source

| Binder | koff [1] | Kd [2] |
| --- | --- | --- |
| recombinant human CCL5 (ligand) SPYSSDTTPCCFAYIARPLPRAHIKEYFYTSGKCSNPAVVFVTRKNRQVCANPEKKWVREYINSLEMS | 0.00019 s⁻¹ |  |
| recombinant human CCL11 (ligand) not shown | 0.0045 s⁻¹ | 72 nM |
| recombinant human CXCL11 (ligand) FPMFKRGRCLCIGPGVKAVKVADIEKASIMYPSNNCDKIEVIITLKENKGQRCLNPKSKQARLIIKKVERKNF | 0.0033 s⁻¹ | 130 nM |
| recombinant human CXCL14 (ligand) SKCKCSRKGPKIRYSDVKKLEMKPKYPHCEEKMVIITTKSVSRYRGQEHCLHPKLQSTKRFIKWYNAWNEKRRVYEE | 0.0019 s⁻¹ | 45 nM |
| recombinant human CCL26 (ligand) TRGSDISKTCCFQYSHKPLPWTWVRSYEFTSNSCSQRAVIFTTKRGKKVCTHPRKKWVQKYISLLKTPKQL | 0.00093 s⁻¹ | 26 nM |
| recombinant human CXCL4 (ligand) EAEEDGDLQCLCVKTTSQVRPRHITSLEVIKAGPHCPTAQLIATLKNGRKICLDLQAPLYKKIIKKLLES | 0.00053 s⁻¹ | 170 nM |
| recombinant human CCL21 (ligand) SDGGAQDCCLKYSQRKIPAKVVRSYRKQEPSLGCSIPAILFLPRKRSQAELCADPKELWVQQLMQHLDKTPSPQKPAQGCRKDRGASKTGKKGKGSKGCKRTERSQTPKGP | 0.0014 s⁻¹ | 14 nM |
| recombinant human CCL28 (ligand) SEAILPIASSCCTEVSHHISRRLLERVNMCRIQRADGDCDLAAVILHVKRRRICVSPHNHTVKQWMKVQAAKKNGKGNVCHRKKHHGKRNSNRAHQGKHETYGHKTPY | 0.00087 s⁻¹ | 22 nM |
| recombinant human CXCL9 (ligand) TPVVRKGRCSCISTNQGTIHLQSLKDLKQFAPSPSCEKIEIIATLKNGVQTCLNPDSADVKELIKKWEKQVSQKKKQKNGKKHQKKKVLKVRKSQRSRQKKTT | 0.00085 s⁻¹ | 12 nM |
